The test system of data set [1] is nuclei of Xenopus XTC-2 cells. Briefly: Biochemical complementation assay: release of TBP from nuclei by purified proteins combined with SP Sepharose flow through (FT). Particulars: for reconstitution of release of TBP from nuclei: combined with SP Sepharose FT in the presence of ERS, FIG. 4D. The protocol:
(§1) “Extract” refers to unfractionated egg extract. […] The gel was stained with Coomassie Blue. FIG. 4C depicts ATPase activity of ISWI-D and rISWI. ATPase activity was determined in the presence of buffer (−), DNA (D), or nucleosomes (N). The arrowhead indicates the free phosphate generated by ATP hydrolysis. FIG. 4D depicts biochemical complementation assays for activities capable of removing TBP from the nucleus. Egg extract (Ext), SP Sepharose flow through (FT), and FT complemented with various purified proteins at indicated concentrations were compared for remodeling activity by monitoring residual TBP in the nuclear pellet after incubation of nuclei in an egg extract. All lanes included ERS except lanes 7 and 8, which contained apyrase. Np indicates nucleoplasmin.
The ISWI-D complex was purified from Xenopus egg extract (FIG. 4A), and shown to contain two subunits: p195 and ISWI (FIG. 4B). For the purification, egg extract was fractionated through BioRex 70 (Bio-Rad, Hercules, Calif.) and MonoQ (Amersham Pharmacia, Piscataway, N.J.) essentially as described in Wade et al. (1998) Curr Biol 8:843–846. The MonoQ ISWI-D peak (eluting at approximately 0.45 M NaCl) was further purified by gradient elution on MonoS (linear gradient from 0.1 to 0.5 M NaCl in Buffer A) as described in Wade et al., supra. ISWI-D was eluted at approximately 0.3 M NaCl. Drosophila rISWI was produced in E. coli and purified by IMPACT T7 system (New England Biolabs, Beverly, Mass.) and Superdex 200 gel filtration column (Amersham Pharmacia). ATPase activity was tested as described in Corona et al, supra.
Either ISWI-D complex or rISWI were essential for release of TBP from nuclei. The endogenous activity in the extract responsible for the release of TBP from chromatin was depleted by applying the extract to SP Sepharose, and restored by combining the SP Sepharaose flow through (FT) and the 0.5 M NaCl eluate from BioRex 70 that contained ISWI (FIG. 4D, lanes 2 and 3). FT was prepared from SP Sepharose (Amersham Pharmacia) by equilibrating the resin with Buffer A and briefly centrifuging to deplete the buffer. The egg extract was incubated with the equilibrated resin for 30 minutes in a cold room and briefly centrifuged to collect FT. […] Release of TBP from nuclei by ISWI plus FT was also confirmed by immunofluorescence.
Three other proteins known to modify protein-DNA interactions (TAF172, the Mi-2 complex and nucleoplasmin) were also tested in this biochemical complementation assay. Recombinant human TAF172 was prepared in a baculovirus expression system (see Chicca et al. (1998) Mol Cell Biol 18:1701–1710), while the Mi-2 complex and nucleoplasmin were isolated from Xenopus egg extracts. TAF 172, the human homologue of yeast Mot1, also belongs to the SWI2/SNF2 superfamily and removes TBP from DNA in vitro (Auble et al. (1994) Genes Dev 8:1920–1934; Chicca et al., supra). The Xenopus Mi-2 complex contains Mi-2, also a member of the SWI2/SNF2 superfamily, in addition to five other subunits and remodels chromatin (Wade et al (1998) Curr Biol 8:843–846; Guschin et al. (2000) Biochem 39:5238–5245). Nucleoplasmin remodels sperm chromatin upon fertilization (Dimitrov et al., supra; Philpott et al. (2000) Cell 69:759767). […] Higher concentrations of these proteins were also tested, with similar results.

In data set [2] the test system is nuclei of Xenopus XTC-2 cells. Briefly: Nuclear remodeling assay: permeabilized somatic nuclei incubated in Xenopus egg S phase extract, TBP in nuclear pellet by immunoblot. The class given is biochemical. The following applies: agent added to nuclear remodeling reaction in egg extract; immunoblot FIG. 1A. For orientation: A western blot detects proteins with antibodies after separation by electrophoresis.
Method: To simplify nuclear remodeling assays by eliminating nuclear transport steps, both the plasma membrane and nuclear envelope of Xenopus XTC-2 cells (henceforth called nuclei) were permeabilized with a detergent, essentially as described in Adam et al. (1992) Methods Enzymol. […] Xenopus XTC-2 cells were permeabilized with 30 μg/ml digitonin for three minutes using the LL-Bsa method (Gurdon (1976) J. Embryol. Exp. Morphol. 36:5235407) replacing lysolecithin (which caused tight aggregation of nuclei) by digitonin. […] The permeability of the nuclear envelope was monitored by the passive entry of fluorescence-labeled immunoglobulin G (150k Da) into the nuclei (Newmeyer et al. (1986) J Cell Biol 103:2091–2102). […]
After incubation for two hours at room temperature 100 μl of Buffer B (10 mM HEPES pH 7.8, 75 mM KCl, 4 mM magnesium chloride, 250 mM sucrose, 0.5 mM spermidine trihydrochloride, 0.15 mM spermine tetrahydrochloride, 1 mM dithiothreitol, 10 mM β-glycerophosphate, 1 μg/ml leupeptin, 2 μg/ml pepstatin A, 100 μM 4-(2-aminoethyl)-benzenesulfonyl fluoride, AEBSF) was added and the reaction mix was centrifuged at 15,000× g for 10 min. The pellet, called remodeled nuclei, was analyzed by immunoblotting using SuperSignal West Dura (Pierce, Rockford, Ill.) as a substrate of horseradish peroxidase.

In data set [3] the test system is nuclear matrix. Nature of the data set: Release of TBP from purified nuclear matrix, immunoblot. The class given is biochemical, Xenopus. The following applies: presence of ERS; ISWI-D or rISWI added to the FT fraction; FIG. 5. The method, then:
Analysis of histone H2B is shown as a control. Nuclear matrix was prepared as described in the Examples, and nuclear matrix proteins were separated by gel electorphoresis. Each lane contained matrix from 4×10^5 nuclei. The gel was blotted, and the blots were analyzed with antibodies to TBP or H2B. Nuclei were incubated with egg extract (lanes 2 and 3) or various combinations of proteins and protein fractions (lanes 4–8) prior to preparation of nuclear matrix. Analysis of a preparation of nuclear matrix from nuclei that were not incubated with extract or proteins is shown in lane 1. Presence or absence of an ERS in the incubation is indicated by “+” and “−,” respectively.
To understand the mechanism of the release of TBP further, nuclear matrix was prepared from the nuclei that had not been incubated in the egg extract, by using 0.5% Triton X-100, DNase I, 250 mM ammonium sulfate, and 2M NaCl. The nuclear matrix was prepared essentially as described D. L. Spector and D. Goldman, L. L. A, in Cells, A Laboratory Manual. (Cold Spring Harbor Laboratory Press, New York, 1997) pp. 44.1–44.8. […]
The purified nuclear matrix was incubated in the egg extract and its composition was analyzed by immunoblotting.

In data set [4] the test system is nucleosomes. Briefly: ATPase activity in the presence of buffer, DNA or nucleosomes. The data set is classed as biochemical. The following applies: FIG. 4C. The method, then: as §1
The ISWI-D complex was purified from Xenopus egg extract (FIG. 4A), and shown to contain two subunits: p195 and ISWI (FIG. 4B). For the purification, egg extract was fractionated through BioRex 70 (Bio-Rad, Hercules, Calif.) and MonoQ (Amersham Pharmacia, Piscataway, N.J.) essentially as described in Wade et al. (1998) Curr Biol 8:843–846. The MonoQ ISWI-D peak (eluting at approximately 0.45 M NaCl) was further purified by gradient elution on MonoS (linear gradient from 0.1 to 0.5 M NaCl in Buffer A) as described in Wade et al., supra. ISWI-D was eluted at approximately 0.3 M NaCl. […]

Positions count from the first letter of the chain named.

Turning to “TAF172: recombinant human TAF172, homologue of yeast Mot1, prepared in a baculovirus expression system”, the “reconstitution of release of TBP from nuclei” value (“reconstitution” for short) in data set [1] is given as “None of these proteins proved capable of reconstituting TBP removal activity”.
For the molecule aphidicholin, the “effect on exclusion (loss) of TBP from nuclei in egg extract” value in data set [2] is “neither aphidicholin nor arabinosylcytosine (both inhibitors of DNA replication) inhibited the loss of TBP”.
Same read-out and setting: under apyrase stands “exclusion was inhibited”.
Turning to “nucleoplasmin: molecular chaperone isolated from Xenopus egg extracts; remodels sperm chromatin”, in data set [1], the “reconstitution” value is given as “None of these proteins proved capable of reconstituting TBP removal activity”.

B1: rISWI: recombinant Drosophila ISWI produced in E. coli (protein, UniProt Q24368 1-1027, looked up)
Chromatin-remodeling complex …: MSKTDTAAVEATEENSNETTSDAATSSSGEKEAEFDNKIEADRSRRFDFLLKQTEIFTHFMTNSAKSPTKPKGRPKKIKDKDKEKDVADHRHRKTEQEEDEELLAEDSATKEIFRFDASPAYIKSGEMRDYQIRGLNWMISLYENGINGILADEMGLGKTLQTISLLGYLKHFKNQAGPHIVIVPKSTLQNWVNEFKKWCPSLRAVCLIGDQDTRNTFIRDVLMPGEWDVCVTSYEMCIREKSVFKKFNWRYLVIDEAHRIKNEKSKLSEILREFKTANRLLITGTPLQNNLHELWALLNFLLPDVFNSSEDFDEWFNTNTCLGDDALITRLHAVLKPFLLRRLKAEVEKRLKPKKEMKIFVGLSKMQRDWYTKVLLKDIDVVNGAGKVEKMRLQNILMQLRKCTNHPYLFDGAEPGPPYTTDTHLVYNSGKMAILDKLLPKLQEQGSRVLIFSQMTRMLDILEDYCHWRNYNYCRLDGQTPHEDRNRQIQEFNMDNSAKFLFMLSTRAGGLGINLATADVVIIYDSDWNPQMDLQAMDRAHRIGQKKQVRVFRLITESTVEEKIVERAEVKLRLDKMVIQGGRLVDNRSNQLNKDEMLNIIRFGANQVFSSKETDITDEDIDVILERGEAKTAEQKAALDSLGESSLRTFTMDTNGEAGTSSVYQFEGEDWREKQKLNALGNWIEPPKRERKANYAVDAYFREALRVSEPKAPKAPRPPKQPIVQDFQFFPPRLFELLDQEIYYFRKTVGYKVPKNTELGSDATKVQREEQRKIDEAEPLTEEEIQEKENLLSQGFTAWTKRDFNQFIKANEKYGRDDIDNIAKDVEGKTPEEVIEYNAVFWERCTELQDIERIMGQIERGEGKIQRRLSIKKALDQKMSRYRAPFHQLRLQYGNNKGKNYTEIEDRFLVCMLHKLGFDKENVYEELRAAIRASPQFRFDWFIKSRTALELQRRCNTLITLIERENIELEEKERAEKKKKAPKGSVSAGSGSASSNTPAPAPQPKASQKRKSEVVATSSNSKKKKK
For the molecule B1, in data set [1], the “reconstitution” value is listed as “competent to reconstitute release of TBP from nuclei”. Also, the “release of TBP from nuclei in combination with nucleoplasmin” value in data set [1] (nucleoplasmin substituted for the FT fraction) is on record as “incapable of releasing TBP from nuclei”. Besides, in data set [1] (without FT fraction), the “release of TBP from nuclei in the absence of FT” value is on record as “Neither the ISWI-D complex nor rISWI could release TBP from nuclei”. Also, the “release of TBP from the nuclear matrix” value in data set [3] is on record as “resulted in release of TBP”.

B2: mutant of rISWI: rISWI in which lysine 159 in the adenine nucleotide binding domain was replaced with arginine; negative control (protein, UniProt Q24368 1-1027, looked up, variant K159R)
Chromatin-remodeling complex …: B1 Chromatin-remodeling complex … with K159R
As to B2, the “nucleosomal ATPase activity” value in data set [4] is listed as “lacked nucleosomal ATPase activity”. For the same molecule, in data set [1], the “reconstitution” value is on record as “not competent to reconstitute release of TBP from nuclei”.

(Values after patent US7053264B2, “Nuclear reprogramming using IWSI and related chromatin remodeling ATPases” (Sangamo Biosciences, Inc., priority 2000, dated 2006).)
